We go through five molecules from publication PMC2568053, “Relevance of the Diversity among Members of the Trypanosoma Cruzi Trans-Sialidase Family Analyzed with Camelids Single-Domain Antibodies” (PLoS ONE, 2008).

Residue numbers refer to the chain shown, from its start.

Sequences and labels used below:
B1: VHHSI52 (VHH)
VHH: GGGLVQAGGSLRLSCAASGRTFYNYAMGWFRQAPGKEREFVAAISWSGGSTLYTDSVKGRFTISRANGQNTVYLQMNSLKPEDTAVYYCAADADAQPMGIIENYDYWGQG
notes: also called clone SI52; not shown: His6, C-terminal, kept
B2: VHHSI57 (VHH)
VHH: B1 VHH with F22L, L52E, T54A, G68A, T71K, I100V
notes: also called clone SI57; not shown: His6, C-terminal, kept
B3: VHHSI96 (VHH)
VHH: B1 VHH with R20P, L52Y, T54A, G68A, Q69H
notes: also called clone SI96; not shown: His6, C-terminal, kept
B4: VHHSI14 (VHH)
VHH: B1 VHH with T54A, G68A, S78K, I100V
notes: also called clone SI14; VHHS14; not shown: His6, C-terminal, kept
B5: VHH clone WI58 (VHH)
VHH: GGGLVQAGGSLRLSCAASGLTLGNYAMGWFRQAPGKERELVAAISWSGGSTYYPDSVKGRFTISRDNAKNTVYLQMNSLKPEDTAVYYCAADGQLVPLPRLSDGVDYWGKG
notes: not shown: His6, C-terminal, kept

One assay has as its target recombinant TcTS clone TcTS-12 (Trypanosoma cruzi (Cl-Brener strain)).
Experiment: not given
Settings: not given
Consider B1, for which the other was 57.2 % inhibition.

On to B2, for which the other amounted to 57.2 % inhibition.

As to B3, the other was 59.5 % inhibition.

A further assay addresses recombinant TcTS clone TcTS-15 (Trypanosoma cruzi (Cl-Brener strain)).
Experiment: not given
Settings: not given
Consider B1, for which the other was 68.7 % inhibition.

As to B2, the other came out at 81.2 % inhibition.

As to B3, the other is 67.4 % inhibition.

The next assay addresses recombinant TcTS clone TcTS-24 (Trypanosoma cruzi (Cl-Brener strain)).
Experiment: not given
Settings: not given
Take B1: the other was 98 % inhibition.

Turning to B2, the other stood at 98.4 % inhibition.

For the molecule B3, the other was 94.2 % inhibition.

The target in the next assay is recombinant TcTS clone TcTS-46 (Trypanosoma cruzi (Cl-Brener strain)).
Experiment: not given
Settings: not given
In the case of B1, the other amounted to 38.9 % inhibition.

Consider B2, for which the other is 31.7 % inhibition.

On to B3, for which the other was 34.8 % inhibition.

Another assay concerns the target recombinant TcTS clone TcTS-49 (Trypanosoma cruzi (Cl-Brener strain)).
Experiment: not given
Settings: not given
In the case of B1, the other amounted to 49 % inhibition.

Turning to B2, the other turned out to be 51.1 % inhibition.

Turning to B3, the other was 24.4 % inhibition.

The next assay has as its target T1, recombinant Trypanosoma cruzi trans-sialidase TcTS611/2 (Trypanosoma cruzi, clone TcTS611/2 …, UniProt Q26966).
T1 construct: Trypanosoma cruzi trans-sialidase (TcTS), clone 611/2: entire globular core of TcTS without SAPA repeats; also called recombinant TcTS; pTrcTS611/2
The assay is described as follows: IAsys biosensor. Conditions: both partners purified.
B1: the Kd (commonly a measure of binding affinity in units of concentration) worked out at 69 nM; the off-rate constant (koff) (as a rule, the first-order rate constant of dissociation) was 0.0103 s⁻¹; the kon (usually a measure of how fast the partners come together) is 149000 M⁻¹ s⁻¹.

Take B2: the dissociation constant (Kd) turned out to be 86.3 nM, the off-rate (koff) came out at 0.0143 s⁻¹ and the kon was determined as 165000 M⁻¹ s⁻¹.

As for B3, the dissociation constant (Kd) is 48.4 nM, the off-rate constant (koff) amounted to 0.017 s⁻¹ and the kon came out at 352000 M⁻¹ s⁻¹.

For B4, the Kd turned out to be 22.3 nM, the koff is 0.00265 s⁻¹ and the kon turned out to be 119000 M⁻¹ s⁻¹.

A further assay has as its target T1, recombinant Trypanosoma cruzi …. The assay is described as follows: cell-based or functional assay.
Settings: not given
Consider B1, for which the other amounted to 81.3 % inhibition.

On to B2, for which the other is 83.3 % inhibition.

Regarding B3, the other worked out at 80.5 % inhibition.

A further assay has the same target. The assay is described as follows: far-Western, overlay or dot blot; 300 ng of each His-tagged VHH spotted on nitrocellulose, probed with native TcTS611/2, revealed with rabbit anti-TcTS serum and HRP secondary. Conditions: both partners purified.
With B5, the binding result was “binds”.
